Experimental data published in paper PMC6657065.
Each block holds one substance with its values, some of them ahead of it.

What was measured:
Test in all cases: SEC; Superdex-200 on FPLC after TEV removal of the MBP tag; 20 mM NaH2PO4 pH 7.0, 0.3 M NaCl, 1 mM TCEP, 10% glycerol, 0.005% FC-16; 4 °C; mass by regression against gel filtration standards (Bio-Rad); self-association, oligomer size
[1] = molecular target: Bambusa oldhamii cellulose synthase BoCesA1 (Bambusa oldhamii)
[2] = molecular target: Bambusa oldhamii cellulose synthase BoCesA2 (Bambusa oldhamii)
[3] = molecular target: Bambusa oldhamii cellulose synthase BoCesA3 (Bambusa oldhamii)
[4] = molecular target: Bambusa oldhamii cellulose synthase BoCesA4 (Bambusa oldhamii)
[5] = molecular target: Bambusa oldhamii cellulose synthase BoCesA5 (Bambusa oldhamii)
[6] = molecular target: Bambusa oldhamii cellulose synthase BoCesA7 (Bambusa oldhamii)

- stoichiometry N [1]: 6
Substance: Bambusa oldhamii cellulose synthase BoCesA1 (enzyme)

- stoichiometry N [2]: 6
Substance: Bambusa oldhamii cellulose synthase BoCesA2 (enzyme)

- stoichiometry N [3]: 6
Substance: Bambusa oldhamii cellulose synthase BoCesA3 (enzyme)

- stoichiometry N [4]: 6
Substance: Bambusa oldhamii cellulose synthase BoCesA4 (enzyme)

- stoichiometry N [5]: 6
Substance: Bambusa oldhamii cellulose synthase BoCesA5 (enzyme)

- stoichiometry N [6]: 6
Substance: Bambusa oldhamii cellulose synthase BoCesA7 (enzyme)
